Results as given in patent US20240390497A1 (Stanford University, published 2024).

T1: human CD93/Fc fusion protein (human, UniProt Q9NPY3 22-580, limits assumed)
T1 construct: It was biotinylated or DyLight 650-conjugated for staining; also called CD93-Fc chimera protein; CD93-Fc biotinylated protein; not shown: Fc part
T1 sequence (looked up): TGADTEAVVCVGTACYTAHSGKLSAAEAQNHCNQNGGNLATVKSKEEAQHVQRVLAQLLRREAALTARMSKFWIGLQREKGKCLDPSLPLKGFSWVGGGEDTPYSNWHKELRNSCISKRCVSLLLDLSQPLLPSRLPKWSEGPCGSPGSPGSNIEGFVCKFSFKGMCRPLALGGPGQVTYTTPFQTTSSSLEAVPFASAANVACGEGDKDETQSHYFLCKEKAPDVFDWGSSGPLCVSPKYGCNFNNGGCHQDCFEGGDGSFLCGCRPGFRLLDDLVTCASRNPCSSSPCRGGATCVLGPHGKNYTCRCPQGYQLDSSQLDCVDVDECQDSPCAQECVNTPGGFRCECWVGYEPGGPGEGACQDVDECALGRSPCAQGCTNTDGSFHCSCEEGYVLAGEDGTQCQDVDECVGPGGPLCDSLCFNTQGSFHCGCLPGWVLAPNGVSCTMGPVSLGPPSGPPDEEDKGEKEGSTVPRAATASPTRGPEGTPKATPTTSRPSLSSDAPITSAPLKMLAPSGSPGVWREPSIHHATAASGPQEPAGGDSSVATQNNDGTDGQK


Biological target: T1, human CD93/Fc fusion protein
Assay: ELISA on coated human CD93/Fc, HRP anti-human kappa secondary, OD490
Experimental: FIGS. 2A-2O are sets of graphs illustrating that CD93-CAR T cells exert anti-leukemic effects against AML in vitro. FIG. 2A is a bar chart showing that humanized (“HuF11-G1” and “HuF11-G1 TM”) and chimeric F11 (“ChF11-G1”) monoclonal antibodies bind human CD93 with similar affinity. Human CD93/Fc fusion protein was coated in a 96-well plate and different concentrations of the antibodies as indicated were added. HRP-conjugated anti-human Kappa antibody was used as a secondary antibody. CD93 binding activity was measured by reading signals at OD490 […]. FIG. 2B is a cartoon showing the structure of CD93-28z and CD93-BBz CARs. […] Cells were fed with new media every 2-3 days, analyzed for transduction efficiency and phenotype on day 10-11, and processed for downstream experiments. FIG. 2D is a bar graph showing comparing transduction efficiency for each of aCAR molecule and control (“Mock”), measured by flow cytometry on day 10 after T cell activation. […] FIG. 2F is a set of graphs comparing expression levels of markers of T cell activation/exhaustion, including LAG-3, PD-1, TIM-3, and CD39, measured by flow cytometry on day 10 after T cell activation, prior to downstream experiments. […] FIG. 2G is a graph showing CD93 expression on AML cell lines, measured by flow cytometry after staining with biotinylated F11 antibody followed by streptavidin-APC. […]

| EC50 (read off the curve) [µg/mL] | Binder |
| --- | --- |
| ~0.03 | humanized F11 monoclonal antibody (HuF11-G1) (antibody, V domains shown, also called humanized F11 antibody) VH: QVQLVQSGAEVKKPGASVKVSCKASGYTFTDYHMDWVKQAPGQGLEWIGDIDPYNGDTVFNQKFKGKATMTRDTSISTAYMELSRLRSDDTAVYYCTRGGDYWGQGTLVTVSS VL: DIVMTQTPLSLSVTPGQPASISCRSSQTLVHSNGNTYLHWYLQKPGQPPQLLIYKVSNRFSGVPDRFSGSGSGTDFTLKISRVEAEDVGVYFCSQSTHVPFTFGQGTKLEIK |
| ~0.03 | humanized F11 monoclonal antibody (HuF11-G1 TM) (antibody, V domains shown, also called humanized F11 antibody) VH: QVQLVQSGAEVKKPGASVKVSCKASGYTFTDYHMDWVKQAPGQGLEWIGDIDPYNGDTVFNQKFKGKATMTRDTSISTAYMELSRLRSDDTAVYYCTRGGDYWGQGTLVTVSS VL: DIVMTQTPLSLSVTPGQPASISCRSSQTLVHSNGNTYLHWYLQKPGQPPQLLIYKVSNRFSGVPDRFSGSGSGTDFTLKISRVEAEDVGVYFCSQSTHVPFTFGQGTKLEIK |
